Test results published in PMC4010391, “Mammalian TBX1 Preferentially Binds and Regulates Downstream Targets Via a Tandem T-site Repeat”.

Target: T1, GST-TBX1 T-box (Mus musculus, UniProt P70323 90-303)
T1 sequence: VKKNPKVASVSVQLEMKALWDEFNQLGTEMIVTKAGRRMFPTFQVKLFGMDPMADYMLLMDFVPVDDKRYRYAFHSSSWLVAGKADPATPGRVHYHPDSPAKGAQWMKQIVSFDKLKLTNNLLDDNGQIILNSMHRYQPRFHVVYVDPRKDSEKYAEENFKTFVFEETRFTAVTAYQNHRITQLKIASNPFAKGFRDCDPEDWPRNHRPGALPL
Assay: EMSA; 6 h exposure; EMSA, 12.5 ul, GST-TBX1 5-25 ug, HEPES/MgCl2/KCl/DTT/EDTA/glycerol buffer (stock concentrations only, pH not given), 1 ug/ul poly(dI-dC), Ficoll, room temperature, 10 min + 10 min, 5% acrylamide gel
Details: protein: recombinant; tags: N-terminal GST (pGEX4t3); chain copies: 2; label: 5'-32P

B1: Brachyury palindrome probe (Fig S1) (dsDNA)
DNA 1: CTAGATTTCACACCTAGGTGTGAAATCTAG
DNA 2: CTAGATTTCACACCTAGGTGTGAAATCTAG
- binding result: binds
